# Data reported in patent US20200368361A1 (Regeneron, published 2020).
# T1: human MSR1 with a C-terminal Myc tag expressed on HEK293.Myc.hMSR1 cells (human, UniProt P21757 1-451)
# T1 sequence (looked up): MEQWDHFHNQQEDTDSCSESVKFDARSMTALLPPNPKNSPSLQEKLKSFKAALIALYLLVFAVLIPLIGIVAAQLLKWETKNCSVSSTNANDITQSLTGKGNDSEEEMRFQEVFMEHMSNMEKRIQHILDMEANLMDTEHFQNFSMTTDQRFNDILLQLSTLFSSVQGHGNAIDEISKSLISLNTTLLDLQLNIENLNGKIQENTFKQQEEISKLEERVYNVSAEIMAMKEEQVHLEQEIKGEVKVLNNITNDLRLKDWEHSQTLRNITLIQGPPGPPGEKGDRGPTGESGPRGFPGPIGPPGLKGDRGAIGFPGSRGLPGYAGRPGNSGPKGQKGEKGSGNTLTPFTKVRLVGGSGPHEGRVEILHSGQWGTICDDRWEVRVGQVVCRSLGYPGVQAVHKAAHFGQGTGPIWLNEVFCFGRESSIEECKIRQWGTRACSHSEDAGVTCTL
# Target: T1, human MSR1 with a C-terminal Myc tag …
# Test: cell-based or functional assay
IC50 of inhibition of Dil-Acetylated LDL uptake,IC50 of inhibition of Dil-Oxidized LDL uptake,% Inhibition of Dil-Acetylated LDL uptake,% Inhibition of Dil-Oxidized LDL uptake,Binder
2.9 nM,4 nM,,,"H1H27762P2-N297Q (antibody, V domains shown) VH: QVQLVQSGAEVKKPGSSVKVSCKASGGTFSRYDISWVRQAPGQGLEWMGGIIPIFGTSNYAQKFQGRVTITTDESTSTVYMELSSLRSEDTAVYYCARGGRYGWFDPWGQGTLVTVSS VL: not shown"
,> 100 nM,,,"H1H27739P-N297Q (antibody, V domains shown) VH: EVQLVESGGGLVQPGGSLRLSCTASGFTFSSYAMSWVRQAPGKGLEWVSAISGTGSSTYFTDSVKGRFAISRDNSKNTLYLQMNSLRAEDTAVYYCAKDGEWLSTVTLFDYWGQGTLVTVSS VL: EIVMTQSPATLSVSPGERATLSCRASQSVSSNLAWYQQKPGQAPRLLIYGASTRATGIPARFSGSGSGTDFTLTISSLQSEDFALYYCQQYFIWPPHPTFGPGTKVDIKR"
3.5 nM,3.7 nM,,,"H1H27766P2-N297Q (antibody, V domains shown) VH: EVQLVESGGGLVQPGGSLRLSCAASGFTFSSFAMSWVRQAPGKELEWVSSISGRGGSTYYADSVRGRFTISRDNSKITLYLQMNSLRAEDTAVYYCAKDIVFRYTSSAYWYFDLWGRGTLVTVSS VL: not shown"
> 100 nM,> 10 nM,,,"H1H27759P2-N297Q (antibody, V domains shown) VH: EVQLVESGGGFVQPGGSLRLSCAASGFTFSSYAMSWVRQAPGKGLEWVSAISGTGSNTYYADSVKGRFTISRDNSKNTLYLQMNSLRAEDTAVYYCAKDRVTTVTYYFDYWGQGTLVTVSS VL: not shown"
> 100 nM,> 100 nM,,,"H1H27747P-N297Q (antibody, V domains shown) VH: QVQLVESGGAVVQPGRSLRLSCAASGFTFSYYGMHWVRQAPGKGLEWVAVISYDGSKKYYADSVKGRFTISRDNSKNTLYLQMNSLRAEDTAVYYCAKDLTVDFYYGMDVWGQGTTVTVSS VL: DIQMTQSPSSVSASVGDRVTITCRASQGISSWLAWYQQKPGKAPKLLIYATSSLQSGAPSRFSGSGSGTDFTLTISSLQPEDFATYFCQQANSFPYTFGQGTKLEIKR"
1.8 nM,4.6 nM,,,"H1H27754P-N297Q (antibody, V domains shown) VH: EVQLVESGGGLVQPGGSLRLSCAASGFTFRTYAMTWVRQAPGKGLDWVSAITGDGGNTYYADSVKGRFTISRDNSKNTLYLQMNSLRAEDTAIYYCAKDQRFSFALYYFDYWGQGTLVTVSS VL: DIQMTQSPSSVSASVGDRVTITCRASQGISSWLAWYQQKPGNAPKLLIYAAFSLQSGVPSRFSGSGSGTDFTLTISSLQPEDFATYYCQQANNFPWTFGQGTKVEIKR"
,5.5 nM,,,"H1H27734P-N297Q (antibody, V domains shown) VH: EVQLVESRGGLVQPGGSLRLSCAASGFTFSSYAMSWVRQAPGKGLEWVSAISGSGGSTFYADSVKGRFTISRDNSKNTVYLQMNSLRAEDTAVYYCAKALVLRFLEWLGDYWGQGTLVTVSS VL: DIQMTQSPSTLSASVGDRVTITCRASQSISSWLAWFQQKPGKAPKLLIYKASSLESGVPSRFSGSGSGTEFTLTISSLQPDDFATYYCQQYKSYWTFGQGTKVEIKR"
> 100 nM,,,,"H1H27756P-N297Q (antibody, V domains shown) VH: QVQLVESGGGVVQPGRSLRLSCAASGFTFSNYDMHWVRQAPGKGLEWMAVISYDGINKYYADSVKGRFTISRDNSKNTLYLQMNSLRAEDTAVYYCAKGTYSWYFDLWGRGTLVTVSS VL: not shown"
> 20 nM,3.7 nM,,,"H1M21231N (antibody, V domains shown) VH: EVQLVESGGGLVQPGGSLRLSCAASGFTFSDHYMDWVRQAPGKGLEWVGRTRNKANSHTTEYTASVTGRFTISRDDSRNSLYLQMNSLKTEDTAVYYCVRAGIIGTLFDYWGQGTLVTVSS VL: DIQMTQFPSSLSASVGDRVTITCRASQSISSFLNWFQQKPGKAPKFLIYAASSLQSGVPSRFSGSGSGTDFTLTISSLQPEDFATYYCQQSYSSPPITFGQGTRLEIKR"
3.7 nM,3.1 nM,,,"H2aM21227N (antibody, V domains shown) VH: QVQLVQSGAEVKKPGASVKVSCKVSGYTLTELSIHWVRQVPGKGLEWMGGFDPEEGETIFAQEFRDRVTLTEDTSPDTAYMELSSLKSEDAAVYYCTTPRYCNNGICYDYWGQGTLVTVSS VL: DIQMTQSPSSLSASVGDRVTITCRASQSISNYLNWYQQKPGKAPKLLIYTASSLQSGVPSRFSGSGSGTDFTLTISSLQTEDFATYYCQQSYSNFPITFGQGTRLEIKR"
> 100 nM,,,,"H2aM21235N (antibody, V domains shown) VH: EVQLVESGGGLVQPGGSLRLSCAASGFTFSDHYMDWVRQAPGKGLEWVGRTRNKANSYTTEYAASVSGRFTISRDDSKNSLYLQMNSLKTEDTAVYYCTRAGIIGTLFDYWGQGTLVTVSS VL: DIQMTQSPSSLSASVGDRVTITCRASQIIGRYLNWFQQKPGKVPKLLIYAASSLQRGVPSRFSGSGSGTDFTLTISSLQPEDFATYYCQQSYNTPPITFGQGTRLEIKR"
2.4 nM,,79%,91%,"H2aM25700N (antibody, V domains shown) VH: QVQLVQSGSEVKKPGASVKVSCKVSGYTLTELSIHWVRQAPGKGLEWMGGFDPEDGETIYAQKFRGRVTMTEDISPDTAYMELSSLRSEDTAVYYCATPRYCNNGICYDYWGQGTLVTVSS VL: DIQMTQSPSSLSASIGDRVTITCRASQSISSYLNWYQQKPGKAPMLLIYAASSLQSGVPSRFSGSGSGTDFTLTISSLQTEDFATYYCQQSYSTPPITFGQGTRLEIKR"
> 100 nM,9.5 nM,,,"H1H27761P2-N297Q (antibody, V domains shown) VH: EVQLVESGGDLVQPGGSLRLSCSASGFTFNIYAMSWVRQAPGKGLEWVSGISGSGGSTYYADSVKGRFTISRDNSKNTLYFQMNSLRVEDTAVYYCAKKISSSSYYYYAMDVWGQGTTVTVSS VL: not shown"
2.6 nM,4.9 nM,,,"H1H27760P2-N297Q (antibody, V domains shown) VH: EVQLVESGGGLVQPGRSLRLSCAASGFTFDAYAMHWVRQAPGKGLEWVSGISWNSGSIGYADSVKGRFTISRDNAKNSLYLQMNSLREEDTALYYCAKDKILELYYYGMDVWGQGTTVTVSS VL: not shown"
> 100 nM,> 100 nM,22%,43%,"H2aM25685N (antibody, V domains shown) VH: QVQLVQSGAEVREPGASVKLSCKVSGYTLTELSIHWVRQAPGKGLEWMGGFDPEEGETVYAQKFRGRVTLTEDISPDTAYMELSSLTSEDTAVYYCATPRYCNNGICYDYWGQGTLITVSS VL: not shown"
> 100 nM,3.1 nM,,,"H2aM21228N (antibody, V domains shown) VH: VQLVESGGGLVQPGGSLRLSCAASGFTFSDHYMDWVRQAPGKGLEWVGRTRNKANSHTTEYAASVSGRFTISRDDSKNSLYLQMNSLKTEDTAVYYCTRAGIIGTLFDYWGQGTLVTVSS VL: not shown"
1.8 nM,4.5 nM,,,"H2bM21234N (antibody, V domains shown) VH: QVQLQESGPGLVKPSETLSLTCTVTGGSISRNYWSWIRQPPGKGLEWIGYIYYSGSIDYNPSLKSRVTISVDTSKNQFSLKLSSMTAADTAVYYCARDRWNWKYGMDVWGQGTTVIVSS VL: EIVLTQSPGTLSLSPGERATLSCRASQTVRNNYLAWYHQKPGQAPRLLIYGASSRATGIPDRFSGSGSGTDFTLTISRLEPEDFTVYYCHQYGNSPWTFGQGTKMEIKR"
1.3 nM,6.1 nM,,,"H1H21234N-N297Q (antibody, V domains shown) VH: QVQLQESGPGLVKPSETLSLTCTVTGGSISRNYWSWIRQPPGKGLEWIGYIYYSGSIDYNPSLKSRVTISVDTSKNQFSLKLSSMTAADTAVYYCARDRWNWKYGMDVWGQGTTVIVSS VL: EIVLTQSPGTLSLSPGERATLSCRASQTVRNNYLAWYHQKPGQAPRLLIYGASSRATGIPDRFSGSGSGTDFTLTISRLEPEDFTVYYCHQYGNSPWTFGQGTKMEIKR"
> 170 nM,> 16 nM,,,"H2aM25695N (antibody, V domains shown) VH: QVQLQESGPGLVKPSETLSLTCTVTGGSISRNYWSWIRQPPGKGLEWIGYIYYSGSINYNPSLKSRVTISVDMSKNQFSLKLNSVTAADTAVYYCARDRWNWKYGMDVWGQGTTVIVSS VL: EIVLTQSPGTLSLSPGERATLSCRASQTVRNSYLAWYHQKPGQAPRLLIYGASSRATGIPDRFSGSGSGTDFTLTISRLEPEDFAVYYCQQYGSSYWTFGQGTKMEIKR"
,> 100 nM,,,"H2aM21229N (antibody, V domains shown) VH: EVQLVESGGGLVKPGGSLRLSCAASGFTFSRYSMNWVRQAPGKGLEWVSSISSSSSYIYYGDTVKGRFTISRDNAKKSLYLQMNSLRAEDTAVYYCVRDRGQLVLYFDYWGQGTLVTVSS VL: DIQMTQSPASLSTSIRDRVTITCRASLSISSFLNWFQQRPGKAPKLLIYVASNLQSGVPSRFSDSGSGTDFTLTISSLQPEDFATYYCQQNYSTPPITFGQGTRLEIK"
1.6 nM,2.9 nM,,,"H1H27751P-N297Q (antibody, V domains shown) VH: EVQLVESGGGLVQPGGSLRLSCAASGFTFSNYAMHWVRQAPGKGLEYVSAISSNGGSTYYADSVKGRITISRDNSKNTLYLQMGSLRAEDMAVYYCARGRPYYYYFGMDVWGQGTTVTVSS VL: not shown"
